In article PMC8262405 (Molecular cell, 2021):
Residue numbers refer to the chain shown, from its start. Names may count otherwise.

T1: GFP-Rad55-Rad57 complex (His6-GFP-Rad55 and FLAG-Rad57) (S. cerevisiae, UniProt P38953 1-406; P25301 1-460)
T1 sequence (looked up) 1: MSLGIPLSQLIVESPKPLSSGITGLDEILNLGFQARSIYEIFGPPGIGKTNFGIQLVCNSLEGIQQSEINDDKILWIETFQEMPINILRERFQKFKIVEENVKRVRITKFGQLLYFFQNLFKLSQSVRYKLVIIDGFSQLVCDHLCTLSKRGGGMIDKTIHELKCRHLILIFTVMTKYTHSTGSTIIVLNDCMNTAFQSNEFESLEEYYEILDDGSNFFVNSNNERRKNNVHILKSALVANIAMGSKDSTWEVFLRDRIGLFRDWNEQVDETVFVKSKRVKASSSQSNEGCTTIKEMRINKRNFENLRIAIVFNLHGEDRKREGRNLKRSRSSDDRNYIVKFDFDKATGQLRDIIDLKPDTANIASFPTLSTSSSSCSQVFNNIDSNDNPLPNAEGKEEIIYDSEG
T1 sequence (looked up) 2: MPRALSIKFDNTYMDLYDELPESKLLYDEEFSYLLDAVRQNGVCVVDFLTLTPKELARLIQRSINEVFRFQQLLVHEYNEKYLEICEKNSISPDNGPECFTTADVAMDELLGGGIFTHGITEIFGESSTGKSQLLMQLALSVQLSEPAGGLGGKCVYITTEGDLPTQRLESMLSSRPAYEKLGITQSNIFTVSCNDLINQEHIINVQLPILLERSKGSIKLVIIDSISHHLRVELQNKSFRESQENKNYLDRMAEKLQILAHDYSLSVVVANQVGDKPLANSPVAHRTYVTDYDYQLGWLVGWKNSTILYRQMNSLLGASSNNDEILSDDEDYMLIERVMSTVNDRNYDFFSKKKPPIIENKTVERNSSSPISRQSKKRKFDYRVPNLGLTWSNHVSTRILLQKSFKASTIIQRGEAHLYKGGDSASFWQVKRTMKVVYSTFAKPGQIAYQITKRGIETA

B1: Hed1-GFP (natural protein, S. cerevisiae, UniProt Q03937 1-162, looked up)
chain: MQQRSNRRSCSYIPLGVHNNAEKSLCTEVAPARKNKRSITTSPIVNINVVERRLFNLELEKQQLRAKNLSENTGGGSPNGGAYLDAKKGVREQDQYQGGPSKELDRLQPPPSMKKSPPRKKKSLKDLIYETNKTFYQVDSNKVKYKVGLSKKQLLPSKTVDN
B2: Rad51 (natural protein, S. cerevisiae, UniProt P25454 1-400, looked up)
chain: MSQVQEQHISESQLQYGNGSLMSTVPADLSQSVVDGNGNGSSEDIEATNGSGDGGGLQEQAEAQGEMEDEAYDEAALGSFVPIEKLQVNGITMADVKKLRESGLHTAEAVAYAPRKDLLEIKGISEAKADKLLNEAARLVPMGFVTAADFHMRRSELICLTTGSKNLDTLLGGGVETGSITELFGEFRTGKSQLCHTLAVTCQIPLDIGGGEGKCLYIDTEGTFRPVRLVSIAQRFGLDPDDALNNVAYARAYNADHQLRLLDAAAQMMSESRFSLIVVDSVMALYRTDFSGRGELSARQMHLAKFMRALQRLADQFGVAVVVTNQVVAQVDGGMAFNPDPKKPIGGNIMAHSSTTRLGFKKGKGCQRLCKVVDSPCLPEAECVFAIYEDGVGDPREEDE
B3: Rad51-K191R (natural protein, S. cerevisiae, UniProt P25454 1-400, looked up)
chain: B2 chain with K191R

How the values were obtained:
Rad51 = biological target: B2; assay: single-molecule ssDNA curtain
[1] = biological target: T1, GFP-Rad55-Rad57 complex (His6-GFP-Rad55 …); assay: single-molecule ssDNA curtain

binding result (Rad51) | koff [1] | Binder
binds |  | B1
 | 0.00758 s⁻¹ | B2
 | 0.0058 s⁻¹ | B3
